In patent publication US20160108091A1:

Target: human APJ receptor (hAPJ) (human) (UniProt P35414)
Test: cell-based or functional assay

Chain of human APJ receptor (hAPJ) (human) (P35414 whole entry): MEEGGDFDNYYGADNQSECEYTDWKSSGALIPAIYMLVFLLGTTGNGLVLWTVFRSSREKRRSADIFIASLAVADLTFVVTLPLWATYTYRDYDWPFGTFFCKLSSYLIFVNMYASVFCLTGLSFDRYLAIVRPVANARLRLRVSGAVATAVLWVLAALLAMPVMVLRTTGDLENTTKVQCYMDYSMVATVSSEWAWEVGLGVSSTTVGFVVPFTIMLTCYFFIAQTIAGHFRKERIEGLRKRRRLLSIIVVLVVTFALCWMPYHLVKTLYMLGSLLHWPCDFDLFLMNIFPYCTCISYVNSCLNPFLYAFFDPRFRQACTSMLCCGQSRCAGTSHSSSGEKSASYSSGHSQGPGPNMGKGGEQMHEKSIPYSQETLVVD

hAPJ Ca^2+ Flux EC50	Substance
16.3 nM	Conjugate of AH-Fc with apelin cyclic peptide: AH-Fc-BCN clicked to NH2-AzidoLys-GGGGS-Q-R-P-C-L-S-C-K-G-P-Dnle-Phenethylamine (from UniProt P0DOX5 223-449) (Fc fusion)
28.9 nM	Fc-Apelin conjugate using sortase: Fc-GGGGS-LPET-GGGGG-QRPC*LSC*KGP(D-Nle)Phenethylamine (Fc fusion)
